As a reminder, the Kd is the concentration at which binding is half-saturated.

Data set [1] deals with T1, DHX30N (human, UniProt Q7L2E3-3 1-152).
T1 sequence: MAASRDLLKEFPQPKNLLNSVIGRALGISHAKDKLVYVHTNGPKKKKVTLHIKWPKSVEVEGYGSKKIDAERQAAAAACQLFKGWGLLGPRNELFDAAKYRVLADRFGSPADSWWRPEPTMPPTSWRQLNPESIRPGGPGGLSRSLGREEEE
The experiment in a line: fluorescence polarization; 30 nM RNA, pH 6.0 NMR buffer; EMSA: 50 mM Tris-HCl pH 7.5, 150 mM NaCl, 10% glycerol, on ice, 1% agarose 4 C; FP and NMR: pH 6.0 NMR buffer (composition not in material); Ni-NTA: 20 mM Na phosphate pH 6.6, 100 mM NaCl, 20 mM beta-mercaptoethanol, 1% glycerol, room temperature. Conditions: protein: recombinant. For orientation: In fluorescence polarisation assays a small probe gives low polarisation when free and higher when bound to something large.

For data set [2], the target named is NS1 RBD (Influenza A virus Ud, UniProt P03495 1-73). Description: NMR; equimolar dsRNA, pH 6.0 NMR buffer. Conditions: protein: recombinant; tags: none (SUMO-His6 cleaved); chain copies: 2.
Sequence of NS1 RBD (P03495 1-73): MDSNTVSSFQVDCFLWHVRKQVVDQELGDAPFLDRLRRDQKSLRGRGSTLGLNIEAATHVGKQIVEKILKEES

B1: 16-bp dsRNA (dsRNA)
RNA 1: CCAUCCUCUACAGGCG
RNA 2: CGCCUGUAGAGGAUGG
With B1, the Kd in data set [1] (label: FAM (sense and antisense)) is about 40 nM.

B2: 33-bp dsRNA (dsRNA)
RNA 1: CGAGCUCGCCCGGGGAUCCUCUAGAGUCGACCUGC
RNA 2: CUGCAGGUCGACUCUAGAGGAUCCCCGGGCGAGCU
Turning to B2, in data set [2], the binding result is on record as “binds”.
As to CCAUCCUCUACAGGCG (ssRNA) [16-nt sense ssRNA], the Kd in data set [1] (label: 5' FAM) is about 500 nM.

For the origin of these results see article PMC6943125.
